B1: Frizzled-4 (Homo sapiens), Q9ULV1 (parent)
chain: MAWRGAGPSVPGAPGGVGLSLGLLLQLLLLLGPARGFGDEEERRCDPIRISMCQNLGYNVTKMPNLVGHELQTDAELQLTTFTPLIQYGCSSQLQFFLCSVYVPMCTEKINIPIGPCGGMCLSVKRRCEPVLKEFGFAWPESLNCSKFPPQNDHNHMCMEGPGDEEVPLPHKTPIQPGEECHSVGTNSDQYIWVKRSLNCVLKCGYDAGLYSRSAKEFTDIWMAVWASLCFISTAFTVLTFLIDSSRFSYPERPIIFLSMCYNIYSIAYIVRLTVGRERISCDFEEAAEPVLIQEGLKNTGCAIIFLLMYFFGMASSIWWVILTLTWFLAAGLKWGHEAIEMHSSYFHIAAWAIPAVKTIVILIMRLVDADELTGLCYVGNQNLDALTGFVVAPLFTYLVIGTLFIAAGLVALFKIRSNLQKDGTKTDKLERLMVKIGVFSVLYTVPATCVIACYFYEISNWALFRYSADDSNMAVEMLKIFMSLLVGITSGMWIWSAKTLHTWQKCSNRLVNSGKVKREKRGNGWVKPGKGSETVV
partner: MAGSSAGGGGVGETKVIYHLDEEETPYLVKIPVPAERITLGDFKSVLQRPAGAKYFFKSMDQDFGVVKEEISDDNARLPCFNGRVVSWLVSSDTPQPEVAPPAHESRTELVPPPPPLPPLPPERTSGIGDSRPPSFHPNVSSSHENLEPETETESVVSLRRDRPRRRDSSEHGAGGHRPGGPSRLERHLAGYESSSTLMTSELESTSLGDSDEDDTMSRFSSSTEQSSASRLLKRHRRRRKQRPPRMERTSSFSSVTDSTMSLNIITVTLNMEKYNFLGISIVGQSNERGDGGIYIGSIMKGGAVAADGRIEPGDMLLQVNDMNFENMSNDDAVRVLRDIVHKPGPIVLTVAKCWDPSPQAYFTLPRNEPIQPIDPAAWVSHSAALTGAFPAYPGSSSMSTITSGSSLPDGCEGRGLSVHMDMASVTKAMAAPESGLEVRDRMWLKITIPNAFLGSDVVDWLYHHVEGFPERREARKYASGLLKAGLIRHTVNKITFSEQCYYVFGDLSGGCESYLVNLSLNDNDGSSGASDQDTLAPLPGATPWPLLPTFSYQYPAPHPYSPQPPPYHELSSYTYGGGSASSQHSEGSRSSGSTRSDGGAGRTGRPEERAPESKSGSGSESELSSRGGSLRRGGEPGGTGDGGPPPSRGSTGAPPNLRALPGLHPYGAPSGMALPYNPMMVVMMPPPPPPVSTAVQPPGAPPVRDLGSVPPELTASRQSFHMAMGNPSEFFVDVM
B2: Frizzled-4 (Homo sapiens), Q9ULV1 (parent)
chain: B1 chain
partner: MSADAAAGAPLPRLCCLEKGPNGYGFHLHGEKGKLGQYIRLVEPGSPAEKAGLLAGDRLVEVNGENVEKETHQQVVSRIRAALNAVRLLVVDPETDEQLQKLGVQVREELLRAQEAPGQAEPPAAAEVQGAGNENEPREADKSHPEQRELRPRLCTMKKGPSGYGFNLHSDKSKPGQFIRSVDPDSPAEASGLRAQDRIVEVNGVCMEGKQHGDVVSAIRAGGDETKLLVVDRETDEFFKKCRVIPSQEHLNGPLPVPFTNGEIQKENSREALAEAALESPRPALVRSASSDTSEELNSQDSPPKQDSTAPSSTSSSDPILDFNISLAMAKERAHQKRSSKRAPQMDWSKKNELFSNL

Variants of: B1
Details: with dvl2_mouse Dvl2, Q60838

| Variant | effect of a mutation on the interaction |
| --- | --- |
| MAWRGAGPSVPGAPGGVGLSLGLLLQLLLLLGPARGFGDEEERRCDPIRISMCQNLGYNVTKMPNLVGHELQTDAELQLTTFTPLIQYGCSSQLQFFLCSVYVPMCTEKINIPIGPCGGMCLSVKRRCEPVLKEFGFAWPESLNCSKFPPQNDHNHMCMEGPGDEEVPLPHKTPIQPGEECHSVGTNSDQYIWVKRSLNCVLKCGYDAGLYSRSAKEFTDIWMAVWASLCFISTAFTVLTFLIDSSRFSYPERPIIFLSMCYNIYSIAYIVRLTVGRERISCDFEEAAEPVLIQEGLKNTGCAIIFLLMYFFGMASSIWWVILTLTWFLAAGLKWGHEAIEMHSSYFHIAAWAIPAVKTIVILIMRLVDADELTGLCYVGNQNLDALTGFVVAPLFTYLVIGTLFIAAGLVALFKIRSNLQKDGTKTDKLERLMVKIGVFSVLYTVPATCVIACYFYEISNWALFRYSADDSNMAVEMLKIFMSLLVGITSGMWIWSAKTLHTWQKCSNRLVNSGKVKREKRGNGWVKPGKGSETVA [V537A] | decreasing interaction |

Variants of: B2
Details: with nhrf1_human NHERF1, O14745

| Variant | effect of a mutation on the interaction |
| --- | --- |
| MAWRGAGPSVPGAPGGVGLSLGLLLQLLLLLGPARGFGDEEERRCDPIRISMCQNLGYNVTKMPNLVGHELQTDAELQLTTFTPLIQYGCSSQLQFFLCSVYVPMCTEKINIPIGPCGGMCLSVKRRCEPVLKEFGFAWPESLNCSKFPPQNDHNHMCMEGPGDEEVPLPHKTPIQPGEECHSVGTNSDQYIWVKRSLNCVLKCGYDAGLYSRSAKEFTDIWMAVWASLCFISTAFTVLTFLIDSSRFSYPERPIIFLSMCYNIYSIAYIVRLTVGRERISCDFEEAAEPVLIQEGLKNTGCAIIFLLMYFFGMASSIWWVILTLTWFLAAGLKWGHEAIEMHSSYFHIAAWAIPAVKTIVILIMRLVDADELTGLCYVGNQNLDALTGFVVAPLFTYLVIGTLFIAAGLVALFKIRSNLQKDGTKTDKLERLMVKIGVFSVLYTVPATCVIACYFYEISNWALFRYSADDSNMAVEMLKIFMSLLVGITSGMWIWSAKTLHTWQKCSNRLVNSGKVKREKRGNGWVKPGKGSETVA [V537A] | decreasing interaction |

Reference: IntAct's records for PubMed 20802536
